In patent US20220211858A1, “TUBULAR SUPRAMOLECULAR POLYMERS” (priority 2019, published 2022):
Like-named read-outs stand apart in the source and are kept apart here.

Columns and labels:
[1] = Maximum tolerated dose (MTD) dose escalation study; type: in vivo, athymic nude mice; conditions: for Maximum % BW loss: n=3
Experimental: Maximum tolerated dose (MTD) studies. MTD of SAPD 1 has been previously determined in our lab (Table 1). MTDs of other SAPDs were determined by dose escalation studies in healthy female athymic nude mice (Charles River, 12-13 weeks old). A single intravenous (i.v.) injection of SAPD was dosed at day 1 and the body weights of each mouse (n=3) were recorded every day for six days and every the other day until two weeks. The dosing volume was determined based upon a ratio of 200 μL for a 20 g mouse. Doses of SAPDs used in the studied were 108, 72, 54, 45, 36 and 18 mg/kg (CPT equivalent).

[2] = Drug release of SAPDs in rat plasma; type: in vitro ADME; conditions: without GSH, read-out: remaining drugs
Experimental: The drug release in rat plasma (10%, v/v) were performed using similar protocols as those in PBS. To determine the amount of SAPDs and free CPT in each sample, 50 μL of sample was mixed with 200 μL acetonitrile (containing 0.1% TFA) and sonicated for 1 min. The supernatants were collected using centrifugation. All samples were filtered through a 0.22 μm membrane before analysis by a UPLC system (Waters ACQuity™ Ultra Performance LC) equipped with a reverse-phase column (ACQuity UPLC@BEH, C18, 1.7 μm 2.1×150 mm) and a fluorescence detector (ACQuity FLR, Ex/Em=362/430 nm). The column was flushed with a mixture of water (0.1% TFA) and acetonitrile (0.1% TFA) at 0.3 mL/min with the following gradient: 5% acetonitrile (0-1 min), 5-95% acetonitrile (1-5 min), 95% acetonitrile (5-8 min), 95-5% acetonitrile (8-9 min), and 5% acetonitrile (9-10 min). Peaks of SAPDs and free CPT were monitored and recorded, and the concentrations were calculated by comparing with standard curves.

[3] = Circulation studies of SAPDs in rats; type: in vivo, Sprague Dawley (SD) rats; conditions: 10 mg/kg i.v.; for CPT remained in the bounded form: 5 min
Experimental: Circulation studies of SAPDs in rats. Female Sprague Dawley (SD) Rats (200-250 g) were randomly grouped into four groups with three rats in each group. SAPDs were all intravenously (i.v.) dosed at 10 mg/kg (CPT equivalent). The dosing volumes of SAPDs were estimated by a ratio of 1 mL for a 200 g rat. The blood samples were collected at 5 min, 15 min, 30 min, 1 h, 2 h, 4 h, 8 h, and 12 h, which were immediately centrifuged to take plasma for further analysis and stored at −80° C. The plasma proteins were precipitated using similar protocols as mentioned above in drug release section and the determination of SAPDs and free CPT in the plasma by UPLC also used the same conditions.
Estimation of SAPD concentration in plasma upon injection. To calculation the concentration after dilution, we simply set the following parameters: body weight of mice (20 g), dosing volume of mice (200 μL), blood volume of mice (1.8 mL), body weight of rat (200 g), dosing volume of mice (1 mL), blood volume of mice (18 mL) and the dosage for both mice and rats (10 mg/kg).

[4] = Critical micellization concentration (CMC) via Nile Red encapsulation; type: physicochemical; conditions: SAPDs, PBS buffer, Nile Red method
Experimental: Nile Red is a hydrophobic, solvatochromic dye that fluoresces intensely upon exposure to hydrophobic environments compared with its strongly quenched and red-shifted fluorescence in aqueous environments. The CMC of the TTs was determined by incubating these molecules at various concentrations with a fixed content of Nile Red. 10 μL of a 1 mM Nile Red stock solution in acetone was added to each microcentrifuge tube to be used, with the acetone allowed to evaporate in a dark area. TT solutions of various concentrations were subsequently added to the Nile Red containing tubes and equilibrated overnight. The emission spectrum for each sample was then recorded on a Fluorolog spectrofluorometer (Horiba Jobin Yvon Inc., Edison, N.J.), acquiring between 580 and 720 nm with an excitation wavelength of 550 nm.
CMC Measurement of SAPDs of TT1. We next assessed the CMC values for each of the designed SAPDs in aqueous solution. […] Experimentally, the CAC is often measured using spectrometry techniques such as circular dichroism (CD) to reveal the presence of intermolecular associations and packing at a much lower concentration. In the case reported here, the CMC values were measured in the PBS buffer using Nile Red as a probe, which fluoresces intensely in hydrophobic environments and is strongly quenched and red-shifted in aqueous media. […]

[5] = TEM / cryo-TEM imaging of self-assembled nanostructures (dimensions); type: physicochemical; conditions: 2 mM in water
[6] = female, athymic nude, mouse, in vivo, iv, single i.v. injection, CPT equivalent, healthy athymic nude mice
[7] = single i.v. dose 18 mg/kg (CPT equivalent)
[8] = single i.v. dose 36 mg/kg (CPT equivalent)
[9] = single i.v. dose 45 mg/kg (CPT equivalent)
[10] = single i.v. dose 54 mg/kg (CPT equivalent)
[11] = single i.v. dose 72 mg/kg (CPT equivalent)

Row | Structure (SMILES) | MTD [1, 6] | Survival/Total ([1]; single i.v. dose 18 mg/kg) | day of maximum BW loss ([1]; single i.v. dose 18 mg/kg) | Maximum % BW loss [1, 7] | Survival/Total ([1]; single i.v. dose 36 mg/kg) | day of maximum BW loss ([1]; single i.v. dose 36 mg/kg) | Maximum % BW loss [1, 8] | Survival/Total ([1]; single i.v. dose 45 mg/kg) | day of maximum BW loss ([1]; single i.v. dose 45 mg/kg) | Maximum % BW loss [1, 9] | Survival/Total ([1]; single i.v. dose 54 mg/kg) | day of maximum BW loss ([1]; single i.v. dose 54 mg/kg) | Maximum % BW loss [1, 10] | Survival/Total ([1]; single i.v. dose 72 mg/kg) | Maximum % BW loss [1, 11] | Survival/Total ([1]; single i.v. dose 108 mg/kg) | remaining at 96 h ([2]; rat plasma (10%, v/v)) | total CPT concentration in plasma ([3]; 1 h) | total CPT concentration in plasma ([3]; 2 h) | CMC [4] | further results
1 | CC[C@]1(OC(=O)OCCSSC[C@@H](NC(C)=O)C(=O)N[C@@H](CCCCNC(=O)[C@@H](CSSCCOC(=O)O[C@]2(CC)C(=O)OCc3c2cc2n(c3=O)Cc3cc4ccccc4nc3-2)NC(C)=O)C(=O)N[C@@H](CCCCNC(=O)CCOCCOCCOCCOCCOC)C(=O)N[C@@H](CCCCNC(=O)CCOCCOCCOCCOCCOC)C(=O)N[C@@H](CCCCNC(=O)CCOCCOCCOCCOCCOC)C(=O)N[C@@H](CCCCNC(=O)CCOCCOCCOCCOCCOC)C(=O)N[C@@H](CCCCNC(=O)CCOCCOCCOCCOCCOC)C(=O)N[C@@H](CCCCNC(=O)CCOCCOCCOCCOCCOC)C(N)=O)C(=O)OCc2c1cc1n(c2=O)Cc2cc3ccccc3nc2-1 [SAPD 3] | 72 mg/kg | 3/3 | 4 days | 5.5% | 3/3 | 4 days | 1.4% | 3/3 | 4 days | 2.5% | 3/3 | 1 days | 1.6% | 3/3 | 0% | 2/3 | 15% | 2.8 µM | 1.3 µM | – | –
2 | CC[C@]1(OC(=O)OCCSSC[C@@H](NC(C)=O)C(=O)N[C@@H](CCCCNC(=O)[C@@H](CSSCCOC(=O)O[C@]2(CC)C(=O)OCc3c2cc2n(c3=O)Cc3cc4ccccc4nc3-2)NC(C)=O)C(=O)N[C@@H](CCCCNC(=O)CCOCCOCCOCCOCCOC)C(=O)N[C@@H](CCCCNC(=O)CCOCCOCCOCCOCCOC)C(N)=O)C(=O)OCc2c1cc1n(c2=O)Cc2cc3ccccc3nc2-1 [TT 1] | 24 mg/kg | 3/3 | 1 days | 6.5% | 0/3 | 3 days | 21.2% | – | – | – | 0/3 | 3 days | 20% | – | – | – | – | 15.3 µM | 8.1 µM | 2.7 µM | Survival/Total ([1]; single i.v. dose 4.5 mg/kg): 3/3; Maximum % BW loss ([1]; single i.v. dose 4.5 mg/kg (CPT equivalent)): 0%; Survival/Total ([1]; single i.v. dose 9 mg/kg): 3/3; day of maximum BW loss ([1]; single i.v. dose 9 mg/kg): 1 days; Maximum % BW loss ([1]; single i.v. dose 9 mg/kg (CPT equivalent)): 5.1%; Survival/Total ([1]; single i.v. dose 15 mg/kg): 3/3; day of maximum BW loss ([1]; single i.v. dose 15 mg/kg): 2 days; Maximum % BW loss ([1]; single i.v. dose 15 mg/kg (CPT equivalent)): 5.0%; Survival/Total ([1]; single i.v. dose 24 mg/kg): 3/3; day of maximum BW loss ([1]; single i.v. dose 24 mg/kg): 3 days; Maximum % BW loss ([1]; single i.v. dose 24 mg/kg (CPT equivalent)): 9.8%; Survival/Total ([1]; single i.v. dose 30 mg/kg): 1/3; day of maximum BW loss ([1]; single i.v. dose 30 mg/kg): 4 days; Maximum % BW loss ([1]; single i.v. dose 30 mg/kg (CPT equivalent)): 20.6%; remaining at 96 h [2]: 89%; CPT remained in the bounded form [3]: 86%; total CPT retained in the conjugate form ([3]; 1 h): more than 72%; diameter of supramolecular filaments [5]: around 9 nm
3 | CC[C@]1(OC(=O)OCCSSC[C@@H](NC(C)=O)C(=O)N[C@@H](CCCCNC(=O)[C@@H](CSSCCOC(=O)O[C@]2(CC)C(=O)OCc3c2cc2n(c3=O)Cc3cc4ccccc4nc3-2)NC(C)=O)C(=O)N[C@@H](CCCCNC(=O)CCOCCOCCOCCOCCOC)C(=O)N[C@@H](CCCCNC(=O)CCOCCOCCOCCOCCOC)C(=O)N[C@@H](CCCCNC(=O)CCOCCOCCOCCOCCOC)C(=O)N[C@@H](CCCCNC(=O)CCOCCOCCOCCOCCOC)C(N)=O)C(=O)OCc2c1cc1n(c2=O)Cc2cc3ccccc3nc2-1 [SAPD 2] | – | 3/3 | 5 days | 6.2% | 3/3 | 6 days | 2.1% | 3/3 | 2 days | 4.0% | 3/3 | 2 days | 3.5% | 2/3 | 11.4% | 0/3 | 78% | 7.0 µM | 2.2 µM | 10.1 µM | MTD at 2 weeks [1, 6]: 54 mg/kg; day of maximum BW loss ([1]; single i.v. dose 72 mg/kg): 2 days; CPT remained in the bounded form [3]: 28%; length of filaments (majority) [5]: less than 400 nm
4 | CC[C@]1(OC(=O)OCCSSC[C@@H](NC(C)=O)C(=O)N[C@@H](CCCCNC(=O)[C@@H](CSSCCOC(=O)O[C@]2(CC)C(=O)OCc3c2cc2n(c3=O)Cc3cc4ccccc4nc3-2)NC(C)=O)C(=O)N[C@@H](CCCCNC(=O)CCOCCOCCOCCOCCOC)C(=O)N[C@@H](CCCCNC(=O)CCOCCOCCOCCOCCOC)C(=O)N[C@@H](CCCCNC(=O)CCOCCOCCOCCOCCOC)C(=O)N[C@@H](CCCCNC(=O)CCOCCOCCOCCOCCOC)C(=O)N[C@@H](CCCCNC(=O)CCOCCOCCOCCOCCOC)C(=O)N[C@@H](CCCCNC(=O)CCOCCOCCOCCOCCOC)C(=O)N[C@@H](CCCCNC(=O)CCOCCOCCOCCOCCOC)C(=O)N[C@@H](CCCCNC(=O)CCOCCOCCOCCOCCOC)C(N)=O)C(=O)OCc2c1cc1n(c2=O)Cc2cc3ccccc3nc2-1 [SAPD 4] | 72 mg/kg | 3/3 | 5 days | 3.1% | 3/3 | 2 days | 7.2% | 3/3 | – | 0% | 3/3 | 3 days | 3.9% | 2/3 | 1.2% | 1/3 | 18% | 4.7 µM | 1.0 µM | – | day of maximum BW loss ([1]; single i.v. dose 72 mg/kg): 1 days
